This assay deals with aTNFa-Fab (Fab fragment of Infliximab, Remicade). Kind of assay: dynamic binding capacity on a 1 mL-gel column, 1 mg/mL aTNFa-Fab at […], 55% breakthrough.

B1: LB5t-Wild.4d (four connected B5 domains of PpL312), immobilized on agarose carrier (protein)
chain: KEETPETPETDSEEQVTIKENIYFEDGTVQTATFKGTFAEATAEAYRYADLLSKEHGKYTADLEDGGYTINIRFAGKEKTPEEPKEQVTIKENIYFEDGTVQTATFKGTFAEATAEAYRYADLLSKEHGKYTADLEDGGYTINIRFAGKEKTPEEPKEQVTIKENIYFEDGTVQTATFKGTFAEATAEAYRYADLLSKEHGKYTADLEDGGYTINIRFAGKEKTPEEPKEQVTIKENIYFEDGTVQTATFKGTFAEATAEAYRYADLLSKEHGKYTADLEDGGYTINIRFAGKKVDEKPEEC
modifications: coupled to maleimide-activated (EMCH) NHS Activated Sepharose 4 Fast Flow through a reactive amino acid residue
Consider B1, for which the 55% DBC stood at 48.6 mg/mL/gel.

Values taken from patent US20170327535A1.
